Reference: publication PMC7118173 (Nature Communications, 2020)

Columns and labels:
Pino-sepF strain [1] = test: Growth curves / complementation of the Pino-sepF strain
Method: Positive colonies were grown in BHI media supplemented with 25 µg/ml kanamycin overnight at 30 °C and 120 rpm shaking.
All strains were plated in CGXII media plates with 4% (w/v) sucrose as a carbon source for 2 days at 30 °C and then single colonies were inoculated in 10 ml of CGXII media 4% (w/v) sucrose overnight at 30 °C and 120 rpm shaking. The next day, 20 ml of CGXII media supplemented with the appropriate repressor or inducer were inoculated with the overnight cultures to a starting OD600 of 1. OD600 measurements were taken every 1.5 h. Each growth curve represents the average of three different growth curves originally from three different single colonies. […] When required, CGXII media 4% (w/v) sucrose was supplemented with either 1% (w/v) myo-inositol, 50 ng/ml tetracycline or 1% (w/v) gluconate and 25 μg/ml kanamycin.

SepF [2] = test: Western blots of whole-cell extracts (SepF depletion / expression); assay type: cell-based, C. glutamicum; details: Pino-sepF strain, 1% myo-inositol
Method: 24 homogenizer. Crude extracts (120 μg) were analyzed by SDS-PAGE, electro-transferred onto a 0.2 μm Nitrocellulose membrane and blocked with 5% (w/v) skimmed milk. Membranes were incubated with an anti-SepF antibody (produced by Covalab, Supplementary Fig. 25a), an anti-FtsZ antibody (produced by Proteogenix, Supplementary Fig. 25b) or an anti-mNeonGreen antibody (purchased from Chromotek) for 1 h at room temperature.

[3] = system: C. glutamicum ATCC13032 whole-cell extracts; test: SepF and FtsZ quantification by Western blot; assay type: cell-based, Corynebacterium glutamicum; details: 60 ugr loaded
[4] = Negative stain EM of SepF rings; assay type: physicochemical; details: 50 μM, 50 mM HEPES pH 7.4, 300 mM KCl, 10 mM MgCl2
Method: For all samples, 400 mesh carbon coated grids (Electron Microscopy Sciences; CF 400-Cu) were glow-discharged on an ELMO system for 30 sec at 2 mA. 5 µl samples were applied onto the grids and incubated for 30 s, the sample was blotted, washed in 3 drops of water and then stained with 2% (weight/vol) uranyl acetate. Images were recorded on a Gatan UltraScan4000 charged coupled device (CCD) camera (Gatan) on a Tecnai T12 BioTWINLaB6 electron microscope operating at a voltage of 120 kV.

[5] = target: the molecule itself; test: crystal structure; SepFΔML 10 mg/ml with FtsZCTD 5.8 mg/ml (1:5 molar ratio), 100 mM sodium acetate pH 4.6, 30% PEG 4000, 18 °C; 1.6 Å
His6-Sumo tagged SepFΔML = target: T1, His6-Sumo tagged SepFΔML (Corynebacterium glutamicum, UniProt Q8NNN6 63-152); test: SPR; Biacore T200, 25 °C, 25 mM HEPES pH 8, 150 mM KCl, 0.1 mM EDTA; His6-Sumo SepF variants covalently immobilised on NTA chips (3000-4000 RU); FtsZCTD 1.56 to 400 µM injected; steady-state fit; apparent Kd; details: both partners purified
T1 construct: SepF (cg2363), Corynebacterium glutamicum, amino acids 63 to 152; Covalently immobilised on an NTA sensor chip; also called immobilized SepF; source: E. coli BL21 (DE3), purified (Ni-NTA, dialysed directly without SUMO protease for SPR); not shown: His6, N-terminal, kept; SUMO, N-terminal, kept
T1 sequence (looked up): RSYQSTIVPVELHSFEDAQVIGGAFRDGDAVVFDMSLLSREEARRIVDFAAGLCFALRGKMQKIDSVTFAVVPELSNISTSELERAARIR

[6] = target: T2, His6-Sumo tagged SepF_(ΔML,F131A) (Corynebacterium glutamicum, UniProt Q8NNN6 63-152, F131A); test: as above; details: both partners purified
T2 construct: SepF (cg2363), Corynebacterium glutamicum, amino acids 63 to 152 with F131A; also called SepF_(F131A); source: E. coli BL21 (DE3), purified (Ni-NTA, dialysed directly without SUMO protease for SPR); not shown: His6, N-terminal, kept; SUMO, N-terminal, kept
T2 sequence (looked up): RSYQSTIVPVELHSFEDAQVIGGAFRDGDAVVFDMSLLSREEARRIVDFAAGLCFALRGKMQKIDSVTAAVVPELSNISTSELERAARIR

[7] = target: the molecule itself; test: turbidity + dynamic light scattering; SepF or SepF mutant with SUVs (POPC:POPG 8:2), 50 µM each, 100 mM KCl, 10 mM MgCl2, 25 mM Pipes pH 6.9, 25 °C
Pino-sepF strain [8] = test: Cell length distribution (violin plots), Pino-sepF strains; assay type: cell-based, Corynebacterium glutamicum
Method: For imaging, cultures of C. glutamicum were grown in BHI or minimal medium CGXII during the day, and washed and inoculated into CGXII media for overnight growth. The following day cultures were diluted to OD600 = 1 and grown to the required OD (early exponential phase) for imaging. For HADA labeling, cultures were incubated with 0.5 mM HADA for 20 min at 30 °C in the dark. Two percent agarose pads were prepared with the corresponding growth medium and cells were visualized using a Zeiss Axio Observer Z1 microscope fitted with an Orca Flash 4 V2 sCMOS camera (Hamamatsu), and a Pln-Apo 63×/1.4 oil Ph3 objective. Images were collected using Zen Blue 2.6 (Zeiss) and analyzed using the software Fiji[70] and the plugin MicrobeJ[71] to generate violin plots and fluorescent intensity heatmaps. […] The experiments were performed as biological triplicates.

WT C. glutamicum = test: Number of ring-like structures per cell, overexpression in WT; assay type: cell-based, Corynebacterium glutamicum
[9] = target: the molecule itself; test: crystal structure; SepF_(ΔML,Δα3) 17 mg/ml alone, 0.1 M MES pH 6, 20% PEG MME 2000, 0.2 M NaCl, 18 °C
[10] = target: the molecule itself; test: SEC + AUC; sedimentation velocity, 42,000 rpm, 20 °C, 1-2 mg/ml, 50 mM Hepes pH 7.4, 150 mM KCl, 10 mM MgCl2; size exclusion chromatography
[11] = Negative stain EM of SUVs with SepF; assay type: biochemical; details: SepFΔα3 + SUVs, upon addition of FtsZCTD
Dynamic light scattering = assay type: physicochemical; details: protein alone
Method: Polydispersity of the samples was measured using Dyna-pro Plate Reader (Wyatt technology) equipped with an 830 nm laser and a temperature control module. The Dynamics software (version 7.9) was used to schedule data acquisition and data analysis. For each well, 20 measurements of 10 s were averaged and this operation was repeated 20 times for each condition at 25 °C. For samples containing FtsZCTD, the peptide was used at a final concentration of 100 µM. All the experiments were carried out as minimum three biological and technical replicates.

SepF [12] = test: SepF polymerization (turbidity) assay in the presence of SUVs; assay type: biochemical, C. glutamicum; details: SepF (or mutant) plus SUVs 50 µM each, pH 6.9, 25 °C
Method: When used, FtsZCTD was added at a final concentration of 100 μM.
Reverse phase evaporation was used to prepare small unilamellar vesicles (SUVs). A 10 mM lipid solution made of an 8:2 mixture of 1-palmitoyl-2-oleoyl phosphatidylcholine (POPC) and 1-palmitoyl-2-oleoylglycero-3-phosphoglycerol (POPG) (Avanti Polar Lipids) was prepared as described. Chloroform was removed by evaporation under vacuum conditions and the dried phospholipid film was resuspended in a mixture of diethyl ether and buffer (25 mM Hepes pH 7.4, 10 mM MgCl2 and 150 mM KCl). Diethyl ether was eliminated by reverse phase evaporation and by slowly decreasing the pressure to the vacuum. SUVs were obtained by sonication during 30 min at 4 °C. The diameter and charge of SUV were determined by measuring dynamic light scattering (DLS) and electrophoretic mobility profiles on a Zetasizer Nano instrument (Malvern Instruments).

O[C@H]1[C@H](O)[C@@H](O)[C@H](O)[C@@H](O)[C@H]1O [myo-inositol, reference compound]
growth of Pino-sepF (Pino-sepF strain [1]; 1% myo-inositol, after the first 6 h): growth stopped for the depleted strain | SepF protein level (SepF [2]): rapid depletion of SepF

FtsZ: C. glutamicum FtsZ (cg2366)
band volume in whole-cell extract ([3]; ON S (over-night, sucrose)): 14.8379 | band volume in whole-cell extract ([3]; ON S+G (over-night, sucrose + gluconate)): 18.4228 | band volume in whole-cell extract ([3]; T6 S (6 h, sucrose)): 20.1825 | band volume in whole-cell extract ([3]; T6 S+G (6 h, sucrose + gluconate)): 23.8045

B1: M. tuberculosis SepFΔML (domain or fragment)
chain: EDGHPLSKITTLRPKDYSEARTIGERFRDGSPVIMDLVSMDNADAKRLVDFAAGLAFALRGSFDKVATKVFLLSPADVDVSPEERRRIAETGFYAYQ
notes: also called MtbSepFΔML
ring diameter [4]: ~ 40 nm

B2: C. glutamicum SepF C-terminal core domain (SepFΔML), tag removed (domain or fragment, Corynebacterium glutamicum, UniProt Q8NNN6 63-152, looked up)
chain: RSYQSTIVPVELHSFEDAQVIGGAFRDGDAVVFDMSLLSREEARRIVDFAAGLCFALRGKMQKIDSVTFAVVPELSNISTSELERAARIR
notes: Gene codon optimised and synthesised for E. coli; homodimer in the crystal; also called globular core of SepF; source: E. coli BL21 (DE3), purified (Ni-NTA, SUMO protease, SEC); not shown: His6, N-terminal, cleaved; SUMO, N-terminal, cleaved
binding result [5]: binds

B3: FtsZCTD peptide (conserved C-terminal domain of C. glutamicum FtsZ, 10 residues) (peptide)
peptide: DDLDVPSFLQ
notes: C-terminal 10 residues of FtsZ (cg2366), Corynebacterium glutamicum; the printed residues D436, P438 and F440 place the peptide at 433-442; also called FtsZ C-terminal domain peptide; source: synthetic peptide, bought: Genosphere
Kd (His6-Sumo tagged SepFΔML): 15 µM | Kd [6]: 340 µM

B4: full-length C. glutamicum SepF (recombinant) (natural protein, Corynebacterium glutamicum, UniProt Q8NNN6 1-152, looked up)
chain: MSMLKKTKEFFGLAPYEAEHEDAYYADEPRYEGTAAYAPEYRERDYGYAPEAPAPVAPSPAPRSYQSTIVPVELHSFEDAQVIGGAFRDGDAVVFDMSLLSREEARRIVDFAAGLCFALRGKMQKIDSVTFAVVPELSNISTSELERAARIR
notes: SepF (cg2363), Corynebacterium glutamicum, full length; source: E. coli BL21 (DE3), purified (Ni-NTA, SUMO protease, SEC); not shown: His6, N-terminal, cleaved; SUMO, N-terminal, cleaved
binding result [7]: binds

B5: SepF-Scarlet: mScarlet-I fused on the C-terminal side of SepF (protein)
chain: MSMLKKTKEFFGLAPYEAEHEDAYYADEPRYEGTAAYAPEYRERDYGYAPEAPAPVAPSPAPRSYQSTIVPVELHSFEDAQVIGGAFRDGDAVVFDMSLLSREEARRIVDFAAGLCFALRGKMQKIDSVTFAVVPELSNISTSELERAARIR
modifications: left off: mScarlet-I, C-terminal, kept
complementation of SepF depletion (growth) (Pino-sepF strain [1]; SepF depletion with 1% myo-inositol, exogenous construct induced): complemented the SepF depletion strain for growth | mean cell length (Pino-sepF strain [8]; 1% myo-inositol + 1% gluconate, t = 6, replicate 1, listed as PgntK_SepF_Scarlet): 5.38 | cell elongation on complementation (Pino-sepF strain [8]; PgntK, compared with control cells): cells were more elongated than control cells | frequency of cells with n septa (ring-like structures) (WT C. glutamicum; n septa 0, replicate 1): 0.369 | frequency of cells with n septa (ring-like structures) (WT C. glutamicum; n septa 0, replicate 2): 0.283 | frequency of cells with n septa (ring-like structures) (WT C. glutamicum; n septa 0, replicate 3): 0.282 | frequency of cells with n septa (ring-like structures) (WT C. glutamicum; n septa 1, replicate 1): 0.513 | frequency of cells with n septa (ring-like structures) (WT C. glutamicum; n septa 1, replicate 2): 0.547 | frequency of cells with n septa (ring-like structures) (WT C. glutamicum; n septa 1, replicate 3): 0.565 | frequency of cells with n septa (ring-like structures) (WT C. glutamicum; n septa 2, replicate 1): 0.104 | frequency of cells with n septa (ring-like structures) (WT C. glutamicum; n septa 2, replicate 2): 0.153 | frequency of cells with n septa (ring-like structures) (WT C. glutamicum; n septa 2, replicate 3): 0.127 | frequency of cells with n septa (ring-like structures) (WT C. glutamicum; n septa 3, replicate 1): 0.014 | frequency of cells with n septa (ring-like structures) (WT C. glutamicum; n septa 3, replicate 2): 0.017 | frequency of cells with n septa (ring-like structures) (WT C. glutamicum; n septa 3, replicate 3): 0.025 | frequency of cells with n septa (ring-like structures) (WT C. glutamicum; n septa 4, replicate 1): 0 | frequency of cells with n septa (ring-like structures) (WT C. glutamicum; n septa 4, replicate 2): 0 | frequency of cells with n septa (ring-like structures) (WT C. glutamicum; n septa 4, replicate 3): 0 | frequency of cells with n septa (ring-like structures) (WT C. glutamicum; n septa 5, replicate 1): 0 | frequency of cells with n septa (ring-like structures) (WT C. glutamicum; n septa 5, replicate 2): 0 | frequency of cells with n septa (ring-like structures) (WT C. glutamicum; n septa 5, replicate 3): 0 | frequency of cells with n septa (ring-like structures) (WT C. glutamicum; n septa 6, replicate 1): 0 | frequency of cells with n septa (ring-like structures) (WT C. glutamicum; n septa 6, replicate 2): 0 | frequency of cells with n septa (ring-like structures) (WT C. glutamicum; n septa 6, replicate 3): 0 | frequency of cells with n septa (ring-like structures) (WT C. glutamicum; n septa 7, replicate 1): 0 | frequency of cells with n septa (ring-like structures) (WT C. glutamicum; n septa 7, replicate 2): 0 | frequency of cells with n septa (ring-like structures) (WT C. glutamicum; n septa 7, replicate 3): 0 | ring-like structures per cell (WT C. glutamicum; overexpression in WT background): mostly single rings at mid-cell

B6: SepF_(ΔML,Δα3) (domain or fragment, Corynebacterium glutamicum, UniProt Q8NNN6 63-137, looked up)
chain: RSYQSTIVPVELHSFEDAQVIGGAFRDGDAVVFDMSLLSREEARRIVDFAAGLCFALRGKMQKIDSVTFAVVPEL
notes: SepF (cg2363), Corynebacterium glutamicum, amino acids 63 to 137 (core domain without the C-terminal helix α3); Dimers associate into linear polymers in the crystals; source: E. coli BL21 (DE3), purified (Ni-NTA, SUMO protease, SEC); not shown: His6, N-terminal, cleaved; SUMO, N-terminal, cleaved
binding result [9]: binds

B7: C. glutamicum SepF devoid of helix α3 (construct of the SEC and AUC experiments) (domain or fragment)
chain: MSYQSTIVPVELHSFEDAQVIGGAFRDGDAVVFDMSLLSREEARRIVDFAAGLCFALRGKMQKIDSVTFAVVPEL
stoichiometry N [10]: 2

B8: SepFΔα3 (domain or fragment, Corynebacterium glutamicum, UniProt Q8NNN6 1-137, looked up)
chain: MSMLKKTKEFFGLAPYEAEHEDAYYADEPRYEGTAAYAPEYRERDYGYAPEAPAPVAPSPAPRSYQSTIVPVELHSFEDAQVIGGAFRDGDAVVFDMSLLSREEARRIVDFAAGLCFALRGKMQKIDSVTFAVVPEL
notes: SepF (cg2363), Corynebacterium glutamicum, amino acids 1 to 137 (without the C-terminal helix α3); source: E. coli BL21 (DE3), purified (Ni-NTA, SUMO protease, SEC); not shown: His6, N-terminal, cleaved; SUMO, N-terminal, cleaved
binding result [7]: binds

B9: SepFΔα3: SepF amino acids 1 to 137, lacking the regulatory C-terminal helix (protein)
chain: MSMLKKTKEFFGLAPYEAEHEDAYYADEPRYEGTAAYAPEYRERDYGYAPEAPAPVAPSPAPRSYQSTIVPVELHSFEDAQVIGGAFRDGDAVVFDMSLLSREEARRIVDFAAGLCFALRGKMQKIDSVTFAVVPEL
modifications: left off: His6, N-terminal, cleaved | SUMO, N-terminal, cleaved
reversal by FtsZCTD of particle formation and vesicle tubulation [11]: only partially reversed | dispersity by DLS (Dynamic light scattering): monodisperse | polymerization with SUVs (turbidity) (SepF [12]): polymerization and vesicle tubulation were also seen but could only be partially reversed
